The data set concerns ATP. Briefly: switch fluorescence ratio, 500 uM ATP over buffer (Cy3 cluster intensity, sum of 5 cycles each) (fold (ratio)); higher = stronger signal-on switching upon ATP binding; sequences stand for … in TCGTCGGCAGCGTCAGATGTGTATAAGAGACAGTTTTTTTTTTTTTTTTTTTTTTTTT…TC. The note with it: aptamer strand: ATP DNA aptamer (quencher-CACCTGGGGGAGTATTGCGGAGGAAGG + anchor), 100 nM annealed; ATP concentration: 500 uM. In outline: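 After annealing to 100 nM quencher-labelled ATP aptamer, Cy3-labelled switching-strand clusters on a modified Illumina MiSeq flow-cell were imaged in selection buffer. A second image followed after 15 min with 500 uM ATP at 22 °C, and five such buffer/ATP cycles were done, each separated by NaOH stripping and re-annealing. The fluorescence ratio, averaged per switch-domain sequence, is summed target-cycle over summed buffer-cycle Cy3 intensity per cluster, with clusters outside 100-1000 RFU excluded.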

± gives the standard deviation of the averaged measurements.

Consider 120 sequences from the supplement of paper PMC10126150.
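Also: ATP exposure 15 min at 22 °C before imaging.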

For GATGGGGGTT, the switch fluorescence ratio was determined as 1 ± 0.012.

On to CGTATGAAAT, for which the switch fluorescence ratio stood at 0.9985 ± 0.0089.

Consider ACAGCTAGTA, for which the switch fluorescence ratio turned out to be 0.986 ± 0.019.

For GGCATAAGTG, the switch fluorescence ratio was 1.016 ± 0.0087.

TAGTTCGTAT: the switch fluorescence ratio worked out at 0.986 ± 0.0099.

Consider AGAGTAGGGG, for which the switch fluorescence ratio is 0.979 ± 0.029.

GGGTTGCCGT: the switch fluorescence ratio turned out to be 0.977 ± 0.036.

For TCCTTGGGGT, the switch fluorescence ratio amounted to 1.73 ± 0.97.

Take TTAGAAAAAG: the switch fluorescence ratio amounted to 0.9811 ± 0.0052.

With CGGTTTTCAT, the switch fluorescence ratio stood at 0.984 ± 0.019.

Turning to GTAACGTAAG, the switch fluorescence ratio amounted to 1.03 ± 0.034.

On to CTATTATGTT, for which the switch fluorescence ratio stood at 1 ± 0.019.

As for ATGCTACCAT, the switch fluorescence ratio was 1.05 ± 0.022.

On to AGGTAGGGGA, for which the switch fluorescence ratio was determined as 1.01 ± 0.041.

In the case of AGACCTTTTA, the switch fluorescence ratio came out at 1 ± 0.063.

On to GCTGTAGGCG, for which the switch fluorescence ratio amounted to 0.988 ± 0.015.

Turning to GAAGTATTTT, the switch fluorescence ratio worked out at 0.962 ± 0.027.

Take GAAGAAGGGT: the switch fluorescence ratio was determined as 0.99 ± 0.017.

For AGGGATTCGC, the switch fluorescence ratio was determined as 0.997 ± 0.011.

Regarding CACGGGGGAG, the switch fluorescence ratio was found to be 1.005 ± 0.0096.

Turning to GCTCAAATGG, the switch fluorescence ratio came to 1.04 ± 0.013.

Consider TGAGATTGTG, for which the switch fluorescence ratio was 1.02 ± 0.037.

In the case of AACGACACAT, the switch fluorescence ratio turned out to be 1.46 ± 0.014.

Regarding TAATCTGGTA, the switch fluorescence ratio was found to be 0.986 ± 0.017.

As to TACATATTTT, the switch fluorescence ratio turned out to be 1.05 ± 0.043.

On to TTGAACGGGG, for which the switch fluorescence ratio amounted to 0.9933 ± 0.0035.

As to TCGCATTCGT, the switch fluorescence ratio was found to be 1.25 ± 0.026.

Turning to CTGGGGGGTT, the switch fluorescence ratio amounted to 0.994 ± 0.019.

Take TTTATCGATT: the switch fluorescence ratio was 0.991 ± 0.036.

For GGTGTCGGTC, the switch fluorescence ratio stood at 0.956 ± 0.049.

With GGGTAGGGAT, the switch fluorescence ratio is 1 ± 0.032.

As for GATGTGCAGG, the switch fluorescence ratio stood at 0.9915 ± 0.0084.

Turning to TAGGGGCTTG, the switch fluorescence ratio came to 1.014 ± 0.0011.

GCTTGGGGTG: the switch fluorescence ratio came to 1.02 ± 0.024.

For the sequence TTAATAGCGG, the switch fluorescence ratio was determined as 0.997 ± 0.049.

In the case of GGTAATATAC, the switch fluorescence ratio was 1.057 ± 0.0076.

With TTCGTTATCT, the switch fluorescence ratio was determined as 0.981 ± 0.015.

As to ATATCGTTCG, the switch fluorescence ratio was determined as 1.02 ± 0.054.

For the sequence ATAGGAGAGC, the switch fluorescence ratio stood at 1.044 ± 0.0021.

As for ATATTAGGTT, the switch fluorescence ratio stood at 0.998 ± 0.018.

As to GGAAAAGGGT, the switch fluorescence ratio worked out at 0.998 ± 0.04.

Take GGAGATTGAT: the switch fluorescence ratio turned out to be 1 ± 0.021.

GGCTGGATTT: the switch fluorescence ratio worked out at 0.98525 ± 0.00086.

With CAGTAATAGG, the switch fluorescence ratio was 1.07 ± 0.0075.

Take AGTGCGGGGA: the switch fluorescence ratio amounted to 0.993 ± 0.04.

ACAGGTGCCG: the switch fluorescence ratio is 1.13 ± 0.11.

On to ATCTGTTAGG, for which the switch fluorescence ratio came out at 1.03 ± 0.041.

For CGTACGGCAG, the switch fluorescence ratio is 0.9978 ± 0.0052.

In the case of CGGAAGATAT, the switch fluorescence ratio came out at 1.039 ± 0.00018.

For CTGAGGGGGT, the switch fluorescence ratio was 0.991 ± 0.066.

Turning to GCGGGAGGCT, the switch fluorescence ratio was 0.977 ± 0.028.

Consider GCCCTGATGG, for which the switch fluorescence ratio came to 1 ± 0.035.

Take TAATAATGGA: the switch fluorescence ratio came to 1.01 ± 0.035.

Consider CGATGGGGGT, for which the switch fluorescence ratio was determined as 1 ± 0.026.

Turning to GTATTTTTGA, the switch fluorescence ratio is 1.003 ± 0.0091.

TAATGGTCAC: the switch fluorescence ratio amounted to 1.01 ± 0.011.

Regarding ATCATTTTAG, the switch fluorescence ratio was found to be 0.995 ± 0.01.

For the sequence ATGTTGGGCG, the switch fluorescence ratio was determined as 0.996 ± 0.052.

On to GGTCACTGCG, for which the switch fluorescence ratio was 0.9955 ± 0.0064.

On to ATTTTTGAAG, for which the switch fluorescence ratio amounted to 1.02 ± 0.044.

TTTGCTCGCC: the switch fluorescence ratio was 1.01 ± 0.04.

For AAAACAGTTT, the switch fluorescence ratio came to 0.987 ± 0.036.

With AGGGTGACCT, the switch fluorescence ratio came out at 1.17 ± 0.15.

As for ATGAAAATGG, the switch fluorescence ratio came to 0.971 ± 0.019.

In the case of TCTGTTGTTC, the switch fluorescence ratio came to 0.993 ± 0.018.

For the sequence TGATTTTGGT, the switch fluorescence ratio was 1.01 ± 0.025.

For AAAACCGTCG, the switch fluorescence ratio is 1.1 ± 0.023.

CATCATGGTC: the switch fluorescence ratio was determined as 1.03 ± 0.054.

For the sequence GGTGGGTCGG, the switch fluorescence ratio came to 0.98 ± 0.036.

With TACTTGTGTA, the switch fluorescence ratio came to 1.02 ± 0.014.

With TTTGGAGGTT, the switch fluorescence ratio amounted to 1.11 ± 0.2.

For the sequence ATGGATGGAG, the switch fluorescence ratio worked out at 0.99 ± 0.013.

With TTGACACGGG, the switch fluorescence ratio was 1.11 ± 0.025.

As to TTTAGTGGGT, the switch fluorescence ratio worked out at 0.984 ± 0.026.

Turning to TATATAGGAA, the switch fluorescence ratio is 1.018 ± 0.0064.

In the case of TAATGACCTT, the switch fluorescence ratio amounted to 1.16 ± 0.18.

Regarding ATGATACCTT, the switch fluorescence ratio is 1.17 ± 0.019.

In the case of GTTTCCGTTG, the switch fluorescence ratio worked out at 0.98414 ± 0.00058.

For the sequence CAGTTTAGTT, the switch fluorescence ratio was 0.987 ± 0.072.

As for TCAGGTGAAT, the switch fluorescence ratio turned out to be 1.32 ± 0.065.

In the case of GAAATAGATC, the switch fluorescence ratio worked out at 0.953 ± 0.07.

Turning to GCCTGATTTA, the switch fluorescence ratio worked out at 0.95 ± 0.029.

In the case of CACCCGTGCT, the switch fluorescence ratio stood at 1.09 ± 0.016.

TCTTGAAGGT: the switch fluorescence ratio was determined as 0.985 ± 0.0053.

For the sequence ACCGTGCCTG, the switch fluorescence ratio was found to be 1.03 ± 0.072.

On to GTGGCGGGAG, for which the switch fluorescence ratio worked out at 0.997 ± 0.017.

For the sequence TTTCATTGGG, the switch fluorescence ratio was found to be 1.01 ± 0.032.

On to TCAGTTATGG, for which the switch fluorescence ratio came to 1.001 ± 0.0086.

For GGTCGCACGG, the switch fluorescence ratio is 1.02 ± 0.026.

As to AAAGATAACT, the switch fluorescence ratio was 1.024 ± 0.0098.

For the sequence ACGGTCTCGG, the switch fluorescence ratio worked out at 1.01 ± 0.025.

As to TAACATACAT, the switch fluorescence ratio came to 1.18 ± 0.11.

Turning to ATCATTGGTT, the switch fluorescence ratio stood at 1.01 ± 0.015.

Consider TGTCTCTACG, for which the switch fluorescence ratio amounted to 1.021 ± 0.01.

Regarding TGGTGTATTT, the switch fluorescence ratio stood at 1.01 ± 0.011.

For the sequence GAAGTCATTT, the switch fluorescence ratio came to 0.9828 ± 0.0031.

Take GCGAGTGTTT: the switch fluorescence ratio worked out at 1.02 ± 0.048.

As for CAGGGCTCCC, the switch fluorescence ratio was found to be 1.01 ± 0.02.

Turning to GGGAATGCTT, the switch fluorescence ratio amounted to 1.016 ± 0.0054.

On to GGGGTTTAGG, for which the switch fluorescence ratio was 0.989 ± 0.026.

CGTTCCGGGC: the switch fluorescence ratio was determined as 1.2 ± 0.12.

As for TGAACGGGGA, the switch fluorescence ratio was 1.02 ± 0.031.

Regarding ATTTTCGGGT, the switch fluorescence ratio stood at 0.9766 ± 0.0023.

On to ACGTCTACGC, for which the switch fluorescence ratio is 1.101 ± 0.0031.

On to CGGCGTTGCT, for which the switch fluorescence ratio was determined as 0.981 ± 0.045.

As to AGAGGACTTT, the switch fluorescence ratio amounted to 1.001 ± 0.0029.

As for CAGGCTTGG, the switch fluorescence ratio came to 0.994 ± 0.011.

With TTGGGATTCG, the switch fluorescence ratio is 1.01 ± 0.013.

In the case of CCGGATAGTG, the switch fluorescence ratio was 1.03 ± 0.026.

Regarding GTAGTTGGAG, the switch fluorescence ratio came out at 0.992 ± 0.034.

In the case of TTTCTTTATT, the switch fluorescence ratio came out at 1.05 ± 0.063.

For the sequence GTTGGAATTT, the switch fluorescence ratio was 0.966 ± 0.023.

For GCGAGTGTAC, the switch fluorescence ratio is 0.983 ± 0.094.

TCAGTAGGGA: the switch fluorescence ratio came to 2.94 ± 2.8.

Regarding ATTGGGGGT, the switch fluorescence ratio turned out to be 1.026 ± 0.0062.

For the sequence TGCACATTCC, the switch fluorescence ratio came out at 1.7 ± 0.15.

For the sequence TGGTGTGGGG, the switch fluorescence ratio was 0.993 ± 0.021.

CTCCCCCGTC: the switch fluorescence ratio stood at 1.46 ± 0.37.

Take CCGGTTGGTG: the switch fluorescence ratio was 1 ± 0.036.

Regarding ACTGAGGGGA, the switch fluorescence ratio is 1 ± 0.08.
